The values below come from IntAct's records for PubMed 34964704.

To fix the notation:
B1: Claudin-2 (Homo sapiens), P57739 (parent)
chain: MASLGLQLVGYILGLLGLLGTLVAMLLPSWKTSSYVGASIVTAVGFSKGLWMECATHSTGITQCDIYSTLLGLPADIQAAQAMMVTSSAISSLACIISVVGMRCTVFCQESRAKDRVAVAGGVFFILGGLLGFIPVAWNLHGILRDFYSPLVPDSMKFEIGEALYLGIISSLFSLIAGIILCFSCSSQRNRSNYYDAYQAQPLATRSSPRPGQPPKVKSEFNSYSLTGYV

The variants in the first test derive from B1. The conditions noted are these: with ap2m1_human AP2M1, Q96CW1.
ap2m1_human AP2M1, Q96CW1, sequence (Q96CW1 whole entry): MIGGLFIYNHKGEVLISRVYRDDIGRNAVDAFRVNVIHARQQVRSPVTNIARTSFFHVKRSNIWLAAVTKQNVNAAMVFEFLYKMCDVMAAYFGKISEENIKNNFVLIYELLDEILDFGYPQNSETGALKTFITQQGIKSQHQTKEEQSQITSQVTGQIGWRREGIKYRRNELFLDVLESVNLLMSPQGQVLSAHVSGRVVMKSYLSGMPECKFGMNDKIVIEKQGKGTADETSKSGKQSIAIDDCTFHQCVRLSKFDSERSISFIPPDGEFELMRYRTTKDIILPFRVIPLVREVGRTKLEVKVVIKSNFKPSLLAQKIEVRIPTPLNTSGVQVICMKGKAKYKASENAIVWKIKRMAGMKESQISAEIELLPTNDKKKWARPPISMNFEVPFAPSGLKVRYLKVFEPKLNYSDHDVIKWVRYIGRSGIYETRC
Y67A;L70A;Y148A;L151A: the “effect of a mutation on the interaction” value is “disrupting interaction strength”.
For the variant Y67A;L70A, the “effect of a mutation on the interaction” value is “disrupting interaction strength”.
Still for that read-out and setting: with Y148A;L151A the entry was “decreasing interaction strength”.

Another test covers variants of B1. The conditions noted are these: with ap2m1_human AP2M1, Q96CW1. This is another data set of the same source.
As for Y67A;L70A;Y148A;L151A, the “effect of a mutation on the interaction” value is on record as “disrupting interaction”.
